# Test results: patent US12043670B2, “Anti-BCMA antibody-drug conjugates and methods of use” (Eisai R&D Management Co., Ltd., priority 2020, dated 2024)
# Positions count from the first letter of the chain named.
# B1: AB200-(2Vk8)_R2-CDR1-hs-v4 (antibody)
# heavy: QVQLVQSGAEVKKPGSSVKVSCKASGGTFSSYAISWVRQAPGQGLEWMGATYRSQSDTFYNQKFKSRVTITADKSTSTAYMELSSLRSEDTAVYYCARGAVYHGYDVIDNWGQGTLVTVSSASTKGPSVFPLAPSSKSTSGGTAALGCLVKDYFPEPVTVSWNSGALTSGVHTFPAVLQSSGLYSLSSVVTVPSSSLGTQTYICNVNHKPSNTKVDKKVEPKSC
# light: DIQMTQSPSSLSASVGDRVTITCRASQSISSYINWYQQKPGKAPKLLIYATSNLQIGVPSRFSGSGSGTDFTLTISSLQPEDFATYYCQQFRKLPWSFGQGTKLEIKRTVAAPSVFIFPPSDEQLKSGTASVVCLLNNFYPREAKVQWKVDNALQSGNSQESVTEQDSKDSTYSLSSTLTLSKADYEKHKVYACEVTHQGLSSPVTKSFNRGEC
# B2: AB200-R1H32-R2Vk18 (antibody)
# heavy: B1 heavy with S31N, A33W, I34M, S35H, Q55H, F59Y, V101I
# light: B1 light with T51A, N53S, I56S, L94I, S97T
# B3: AB200-R1H32-R2Vk27 (antibody)
# heavy: B1 heavy with S31N, A33W, I34M, S35H, Q55H, F59Y, V101I
# light: B1 light with I33L, L54I, I56S, F91Y, L94I
# B4: AB200-R1H32-R2Vk28 (antibody)
# heavy: B1 heavy with S31N, A33W, I34M, S35H, Q55H, F59Y, V101I
# light: B1 light with I33L, L54I, I56S, L94I, S97T
# B5: AB200-R1H32-R2Vk37 (antibody)
# heavy: B1 heavy with S31N, A33W, I34M, S35H, Q55H, F59Y, V101I
# light: B1 light with I56S, F91Y, L94I
# B6: AB200-R1H32-R2Vk38 (antibody)
# heavy: B1 heavy with S31N, A33W, I34M, S35H, Q55H, F59Y, V101I
# light: B1 light with I56S, L94I, S97T
# B7: AB200-R1H32-R2Vk39 (antibody)
# heavy: B1 heavy with S31N, A33W, I34M, S35H, Q55H, F59Y, V101I
# light: B1 light with L54I, I56S, F91Y, K93R
# B8: AB200-R1H32-R2Vk40 (antibody)
# heavy: B1 heavy with S31N, A33W, I34M, S35H, Q55H, F59Y, V101I
# light: B1 light with L54I, I56S, F91Y, K93R, L94I, S97T
# B9: AB200-R1H32-R2Vk41 (antibody)
# heavy: B1 heavy with S31N, A33W, I34M, S35H, Q55H, F59Y, V101I
# light: B1 light with L54I, I56S, K93R, S97T
# B10: AB200-R1H32-R2Vk2 (antibody)
# heavy: B1 heavy with S31N, A33W, I34M, S35H, Q55H, F59Y, V101I
# light: B1 light with T51A, N53S, I56S
# B11: AB200-R1H32-R2Vk42 (antibody)
# heavy: B1 heavy with S31N, A33W, I34M, S35H, Q55H, F59Y, V101I
# light: B1 light with L54I, I56S, F91Y, L94I
# B12: AB200-R1H32-R2Vk43 (antibody)
# heavy: B1 heavy with S31N, A33W, I34M, S35H, Q55H, F59Y, V101I
# light: B1 light with L54I, I56S, L94I, S97T
# B13: AB200-R1H32-R2Vk47 (antibody)
# heavy: B1 heavy with S31N, A33W, I34M, S35H, Q55H, F59Y, V101I
# light: B1 light with F91Y, L94I
# B14: AB200-R1H32-R2Vk4 (antibody)
# heavy: B1 heavy with S31N, A33W, I34M, S35H, Q55H, F59Y, V101I
# light: B1 light with I33L, L54I, I56S
# B15: AB200-R1H32-R2Vk6 (antibody)
# heavy: B1 heavy with S31N, A33W, I34M, S35H, Q55H, F59Y, V101I
# light: B1 light with I56S
# B16: AB200-R1H32-R2Vk7 (antibody)
# heavy: B1 heavy with S31N, A33W, I34M, S35H, Q55H, F59Y, V101I
# light: B1 light with L54I, I56S
# B17: AB200-R1H32-R2Vk8 (antibody)
# heavy: B1 heavy with S31N, A33W, I34M, S35H, Q55H, F59Y, V101I
# light: B1 light
# B18: AB200-R1H32-R2Vk17 (antibody)
# heavy: B1 heavy with S31N, A33W, I34M, S35H, Q55H, F59Y, V101I
# light: B1 light with T51A, N53S, I56S, F91Y, L94I
# B19: AB200-R1H26-R2Vk18 (antibody)
# heavy: B1 heavy with T28S, S31N, A33W, I34M, S35H, S54I, Q55H, S66G, V101I, I108L
# light: B1 light with T51A, N53S, I56S, L94I, S97T
# B20: AB200-R1H26-R2Vk27 (antibody)
# heavy: B1 heavy with T28S, S31N, A33W, I34M, S35H, S54I, Q55H, S66G, V101I, I108L
# light: B1 light with I33L, L54I, I56S, F91Y, L94I
# B21: AB200-R1H26-R2Vk28 (antibody)
# heavy: B1 heavy with T28S, S31N, A33W, I34M, S35H, S54I, Q55H, S66G, V101I, I108L
# light: B1 light with I33L, L54I, I56S, L94I, S97T
# B22: AB200-R1H26-R2Vk37 (antibody)
# heavy: B1 heavy with T28S, S31N, A33W, I34M, S35H, S54I, Q55H, S66G, V101I, I108L
# light: B1 light with I56S, F91Y, L94I
# B23: AB200-R1H26-R2Vk38 (antibody)
# heavy: B1 heavy with T28S, S31N, A33W, I34M, S35H, S54I, Q55H, S66G, V101I, I108L
# light: B1 light with I56S, L94I, S97T
# B24: AB200-R1H26-R2Vk39 (antibody)
# heavy: B1 heavy with T28S, S31N, A33W, I34M, S35H, S54I, Q55H, S66G, V101I, I108L
# light: B1 light with L54I, I56S, F91Y, K93R
# B25: AB200-R1H26-R2Vk40 (antibody)
# heavy: B1 heavy with T28S, S31N, A33W, I34M, S35H, S54I, Q55H, S66G, V101I, I108L
# light: B1 light with L54I, I56S, F91Y, K93R, L94I, S97T
# B26: AB200-R1H26-R2Vk41 (antibody)
# heavy: B1 heavy with T28S, S31N, A33W, I34M, S35H, S54I, Q55H, S66G, V101I, I108L
# light: B1 light with L54I, I56S, K93R, S97T
# B27: AB200-R1H26-R2Vk2 (antibody)
# heavy: B1 heavy with T28S, S31N, A33W, I34M, S35H, S54I, Q55H, S66G, V101I, I108L
# light: B1 light with T51A, N53S, I56S
# B28: AB200-R1H26-R2Vk42 (antibody)
# heavy: B1 heavy with T28S, S31N, A33W, I34M, S35H, S54I, Q55H, S66G, V101I, I108L
# light: B1 light with L54I, I56S, F91Y, L94I
# B29: AB200-R1H26-R2Vk43 (antibody)
# heavy: B1 heavy with T28S, S31N, A33W, I34M, S35H, S54I, Q55H, S66G, V101I, I108L
# light: B1 light with L54I, I56S, L94I, S97T
# B30: AB200-R1H26-R2Vk47 (antibody)
# heavy: B1 heavy with T28S, S31N, A33W, I34M, S35H, S54I, Q55H, S66G, V101I, I108L
# light: B1 light with F91Y, L94I
# B31: AB200-R1H26-R2Vk48 (antibody)
# heavy: B1 heavy with T28S, S31N, A33W, I34M, S35H, S54I, Q55H, S66G, V101I, I108L
# light: B1 light with L94I, S97T
# B32: AB200-R1H26-R2Vk4 (antibody)
# heavy: B1 heavy with T28S, S31N, A33W, I34M, S35H, S54I, Q55H, S66G, V101I, I108L
# light: B1 light with I33L, L54I, I56S
# B33: AB200-R1H26-R2Vk6 (antibody)
# heavy: B1 heavy with T28S, S31N, A33W, I34M, S35H, S54I, Q55H, S66G, V101I, I108L
# light: B1 light with I56S
# B34: AB200-R1H26-R2Vk7 (antibody)
# heavy: B1 heavy with T28S, S31N, A33W, I34M, S35H, S54I, Q55H, S66G, V101I, I108L
# light: B1 light with L54I, I56S
# B35: AB200-R1H26-R2Vk8 (antibody)
# heavy: B1 heavy with T28S, S31N, A33W, I34M, S35H, S54I, Q55H, S66G, V101I, I108L
# light: B1 light
# B36: AB200-R1H26-R2Vk17 (antibody)
# heavy: B1 heavy with T28S, S31N, A33W, I34M, S35H, S54I, Q55H, S66G, V101I, I108L
# light: B1 light with T51A, N53S, I56S, F91Y, L94I
# Test: ThermoFluor thermostability (Tm)
# Assay type: physicochemical
# Conditions: Fab fragment; heavy chain clone paired with light chain AB200-(2Vk8)
row,Molecule,Tm [°C]
1,B1,76.495

# Same assay, conditions: Fab fragment; light chain clone paired with heavy chain AB200_R1_VH32
row,Molecule,Tm [°C]
1,B2,79.872
2,B3,76.729
3,B4,79.945
4,B5,76.708
5,B6,80.727
6,B7,76.077
7,B8,76.379
8,B9,79.593
9,B10,79.715
10,B11,75.027
11,B12,78.820
12,B13,75.976
13,B14,79.449
14,B15,79.773
15,B16,79.001
16,B17,80.002
17,B18,76.415

# Same assay, conditions: Light chain screening Round 2; Fab, paired with heavy chain AB200_R1_VH26
row,Molecule,Tm [°C]
1,B19,82.729
2,B20,79.104
3,B21,82.966
4,B22,79.374
5,B23,83.791
6,B24,78.907
7,B25,79.308
8,B26,83.256
9,B27,82.119
10,B28,78.411
11,B29,82.001
12,B30,78.634
13,B31,83.862
14,B32,81.832
15,B33,82.640
16,B34,81.764
17,B35,82.921
18,B36,78.993
